Results: article PMC7913460, “Targeting hydroxycinnamoyl CoA: shikimate hydroxycinnamoyl transferase for lignin modification in Brachypodium distachyon” (Biotechnology for Biofuels, 2021)

How the values were obtained:
[1] = substrate: O=C(/C=C/c1ccc(O)c(O)c1)O[C@@H]1CC(C(=O)O)=C[C@@H](O)[C@H]1O; experiment: HPLC product assay, reverse HCT reaction; type: biochemical, Arabidopsis thaliana; conditions: 500 µM CoA, 100 mM sodium phosphate pH 7.5, 500 µM DTT, kcat apparent, substrate tested 20 to 400 µM
Source text: HPLC product assay, reverse HCT reaction on AtHCT1

[2] = substrate: CC(C)(COP(=O)(O)OP(=O)(O)OC[C@H]1O[C@@H](n2cnc3c(N)ncnc32)[C@H](O)[C@@H]1OP(=O)(O)O)[C@@H](O)C(=O)NCCC(=O)NCCSC(=O)/C=C/c1ccc(O)cc1; experiment: HPLC product assay, forward HCT reaction; type: biochemical, Arabidopsis thaliana; conditions: 500 µM shikimic acid, 100 mM sodium phosphate pH 7.5, 500 µM DTT, kcat apparent
Source text: HPLC product assay, forward HCT reaction on AtHCT1

B1: AtHCT1 (Arabidopsis thaliana) (protein)
chain: MKINIRDSTMVRPATETPITNLWNSNVDLVIPRFHTPSVYFYRPTGASNFFDPQVMKEALSKALVPFYPMAGRLKRDDDGRIEIDCNGAGVLFVVADTPSVIDDFGDFAPTLNLRQLIPEVDHSAGIHSFPLLVLQVTFFKCGGASLGVGMQHHAADGFSGLHFINTWSDMARGLDLTIPPFIDRTLLRARDPPQPAFHHVEYQPAPSMKIPLDPSKSGPENTTVSIFKLTRDQLVALKAKSKEDGNTVSYSSYEMLAGHVWRSVGKARGLPNDQETKLYIATDGRSRLRPQLPPGYFGNVIFTATPLAVAGDLLSKPTWYAAGQIHDFLVRMDDNYLRSALDYLEMQPDLSALVRGAHTYKCPNLGITSWVRLPIYDADFGWGRPIFMGPGGIPYEGLSFVLPSPTNDGSLSVAIALQSEHMKLFEKFLFEI
[1]
  Km: 225.0 µM
  kcat: 17 s⁻¹
  kcat/Km: 76000 M⁻¹ s⁻¹
[2]
  Km: 18.5 µM
  kcat: 17.5 s⁻¹
  kcat/Km: 950000 M⁻¹ s⁻¹
